Test results from publication PMC2652392, “The Structural Basis of Gas-Responsive Transcription by the Human Nuclear Hormone Receptor REV-ERBβ” (PLoS Biology, 2009).
No end group written: not given here.

What was measured:
[1] = target: T1, REV-ERBβ ligand-binding domain (human, UniProt Q14995 212-579); assay: FP; heme-bound, control
T1 chain: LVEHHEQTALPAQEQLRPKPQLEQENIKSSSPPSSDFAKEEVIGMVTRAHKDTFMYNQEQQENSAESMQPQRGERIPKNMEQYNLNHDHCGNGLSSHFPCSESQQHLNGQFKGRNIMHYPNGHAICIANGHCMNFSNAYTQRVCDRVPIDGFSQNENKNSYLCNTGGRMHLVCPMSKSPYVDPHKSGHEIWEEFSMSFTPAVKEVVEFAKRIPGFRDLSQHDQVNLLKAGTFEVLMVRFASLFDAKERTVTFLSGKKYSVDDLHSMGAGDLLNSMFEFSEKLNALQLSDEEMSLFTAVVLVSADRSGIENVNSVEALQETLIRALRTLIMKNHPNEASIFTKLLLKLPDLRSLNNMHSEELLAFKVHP

[2] = target: T2, REV-ERBα ligand-binding domain (residues 274–614 with an internal deletion of residues 324–422) (human, UniProt P20393 274-614, internal deletion of residues 324–422); assay: FP; heme-bound, control
T2 sequence: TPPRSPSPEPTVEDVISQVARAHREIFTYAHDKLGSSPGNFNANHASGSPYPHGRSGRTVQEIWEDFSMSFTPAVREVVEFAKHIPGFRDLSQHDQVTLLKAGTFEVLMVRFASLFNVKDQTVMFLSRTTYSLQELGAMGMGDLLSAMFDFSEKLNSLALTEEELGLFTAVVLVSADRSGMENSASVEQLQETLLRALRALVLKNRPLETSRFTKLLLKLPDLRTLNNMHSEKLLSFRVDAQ

[3] = target: T1, REV-ERBβ ligand-binding domain; assay: FP; no heme, + SNAP (NO donor)
[4] = target: T2, REV-ERBα ligand-binding domain …; assay: FP; no heme, + SNAP (NO donor)
[5] = target: T3, REV-ERBα ligand-binding domain (residues 274–614 with an internal deletion of residues 324–422) (human, UniProt P20393 274-614, internal deletion of residues 324–422); assay: fluorescence polarisation; 110 nM N-terminally fluorescein-labelled NCOR peptide with a dilution series of LBD; 100 mM Tris pH 8.2, 150 mM NaCl; apo or heme-bound LBD, with or without the NO donor SNAP (1,200 μM); 384-well plates; conditions: both partners purified
T3 construct: REV-ERBα, human, GenBank CAB53540, residues 274–614 with an internal deletion of residues 324–422; heme is a non-covalent ligand; Modified pET28a vector; also called REV-ERBα LBD; source: E. coli BL21-Gold(DE3) pLysS, with or without hemin in the medium, purified (Ni-NTA)
T3 sequence (looked up): T2 sequence

[6] = target: T1, REV-ERBβ ligand-binding domain; assay: FP; no heme, control
[7] = target: T2, REV-ERBα ligand-binding domain …; assay: FP; no heme, control
[8] = target: T1, REV-ERBβ ligand-binding domain; assay: FP; heme-bound, + SNAP (NO donor)
[9] = target: T2, REV-ERBα ligand-binding domain …; assay: FP; heme-bound, + SNAP (NO donor)

B1: NCOR interaction domain I (IDI) peptide (peptide)
peptide: fluorescein-DPASNLGLEDIIRKALMGSF
notes: also called NCOR peptide; Nuclear Receptor Co-repressor peptide
**Q.** What does the source list for B1?
**A.** Kd [1]: 193 µM; Kd [2]: 51.1 µM; Kd [3]: 20.4 µM; Kd [4]: 3.7 µM; binding result [5]: binds; Kd [6]: 16.8 µM; Kd [7]: 4.1 µM; Kd [8]: 99.7 µM; Kd [9]: 2.9 µM
